4 molecules from PMC10691782 (Cellular immunology, 2022) can be followed below.

For assay [1], the target named is BAFF in human plasma (human (endogenous in plasma)). The assay is described as follows: SEC.
Assay [2] addresses Recombinant BAFF 3-mer (Flag-tagged BAFF amino acid 134-285) (human, UniProt Q9Y275-1 134-285). The assay is described as follows: SPR. For orientation: SPR reads the build-up and loss of mass on a sensor chip optically.
For assay [3], the target named is Recombinant BAFF 60-mer (histidine-tagged BAFF amino acid 134-285) (human, UniProt Q9Y275-1 134-285). The assay is described as follows: SPR.
The target of assay [4] is BAFF 60-mer:mBaffR-Fc complex (human | murine, UniProt Q9Y275-1 134-285; Q9D8D0 1-71). The assay is described as follows: ELISA.

In the case of BAFF in human plasma (natural protein), in assay [1], the stoichiometry N (commonly the number of molecules, sites or subunits per partner or assembly) amounted to 3.

B1: mBaffR-Fc (murine BR3 ecto-domain fused to murine IgG1 Fc fragment) (Fc fusion, UniProt Q9D8D0 1-71, looked up)
chain: MGARRLRVRSQRSRDSSVPTQCNQTECFDPLVRNCVSCELFHTPDTGHTSSLEPGTALQPQEGSALRPDVA
In the case of B1, the binding result in assay [2] and in assay [3] was “binds” in each case.

B2: Murine TACI-Fc (Fc fusion, UniProt Q9ET35 1-128, looked up)
chain: MAMAFCPKDQYWDSSRKSCVSCALTCSQRSQRTCTDFCKFINCRKEQGRYYDHLLGACVSCDSTCTQHPQQCAHFCEKRPRSQANLQPELGRPQAGEVEVRSDNSGRHQGSEHGPGLRLSSDQLTLYC
modifications: biotin (EZ-Link Sulfo-NHS-Biotin), in the ELISA only
Turning to B2, the binding result in assay [4] is “binds”. Still for that read-out and setting: then MAQQCFHSEYFDSLLHACKPCHLRCSNPPATCQPYCDPSVTSSVKGTYT (Fc fusion, UniProt O88472 1-49, looked up, not fully specified; biotin (EZ-Link Sulfo-NHS-Biotin), in the ELISA only) [Murine BCMA-Fc], with “binds”.
